The nature of this series: soluble on expression in E. coli; label from the status in PepcDB or PDB records.
Turning to “MLNSYELGTSFSLEYPRLVLPWMSKKMMSSRFPQHTSFKLYASQLNRARFFKMLSFGGTVSYDFQPSRVWKHTVTPFRLAFNTLQHTTTRFDTIVDKNRSLKISLGNQFIPAMSYTFTYDNAPLKKRNNLWWETSFTSAGNLTSLVYAAFGKGFKETDKKLLNSPYAQFLKMTSEVRCLFKVGEKQHIATRLMGGILYAYGNQTVAPYSEQFYIGGANSIRAFTVRSIGPGSYRPEDKQYGYLDETGDVKLEANVEYRFPILGDLYGAAFLDAGNVWLLREQKNEEGENIRPGGLLTLRNFAKSIALGTGVGLRYDLTFLVIRLDLGIALHDPYDTGKKGYYNIPKFKDGLGLHFAIGYPFLEHHHHHH”, the “soluble on expression in E. coli” value is listed as “soluble”.
On to “MNEDVIVDRQYSHGAALTIRAFWAADEESRAAIAKASGLRWVPSSADQPGEQHWPYTEIFQRQMQMELGPDTETRLRIHQPSQLWVRAPSLGEGWLAVPLYPHPLRGQRI”, for which the “soluble on expression in E. coli” value is listed as “not soluble”.
With “MVALFQHSPYWQADGYGHSHRLKCQHFKQHRQYNDKLEISSNLGPQFNALLNILLNIVHPTLSHDTRRSKGLKIEGLLQSRELGNSWTVTMCIWVLKALQSSAPNKPLDWLDPMPCFQNLLARGTP” the entry was “soluble”.
In the case of “MGSDKIHHHHHHMELTESIRLLFPPEERAQLDISAIKGDASNRQYYRVTGQGSVSVVCADPAFRATAVENYPFLIVRDLFARHGIRVPELLGMVHEQGLLRLEDCGDLMLQDEVPLLDRNRLSARYRQVIDLLVRIQSIRPDKDALTTTLPFSLSFDHEKLMFEFDFFIEHALNGYFAGRLGKPAIARLREEFINICDLLVLPKHFVLNHRDFHSRNIMLFRAEPVVIDFQDARLGLPQYDAVSLLRDSYVRLDPGMVNELKRYHFNQLVQLGLTSMGEAEYLRLFDLMAFQRNVKAIGTFCYQTTVAGNRTFEPSIAATLSYLREYIEARPELAMAGRLLKPIIPEISR”, the “soluble on expression in E. coli” value is given as “not soluble”.
Regarding “GPGSMPPRRKSECLSSYAVDTTPSFQDEKFIEQLLHFVGANDEVSLLTMTAVALGAECYQVDLGQQIVVDARLDFINFCAKQGYCAAKVVHLLKWLCTFQERVEDGCNTQEMQEEVIAFVTSEVEEEWKWKRALQAEEALWEVQSSSKTSARRGHRAAEKVVEETEAVSTVPKENIYLQREDIGPFSTWLIQGIVQHASLYHYVATHARMVGEPEEFNYFLEVPVSAPPLRNALAPESVPQEPPLAKAQQDVEEQRASELETYKKEYEEAMALEQLRLQTIQNERDMKVFIENEGSMRAVEDTYESLQVDLSKRQRQILERITAAEKALGIFPFVQPQ”, the “soluble on expression in E. coli” value was “not soluble”.
Turning to “EVKGIGEYKILGESIDDAAGEAFDKTAKLMGLDYPGGPLLSKLAEKGTPGRFKFPRPMTNVPGLDMSFSGLKTFTANTIAANGDDEQTRADIAYAFEEAVCATLAIKCKRALEQTGMKRIVIAGGVSANRRLRAELEKLAKKIGGEVYYPRTEFCTDNGAMIAYAGMQRLKNGEVADMSVEARPRWPIDQLTPIA”, the “soluble on expression in E. coli” value was “not soluble”.
As to “MSLSLWQQCLARLQDELPATEFSMWIRPLQAELSDNTLALYAPNRFVLDWVRDKYLNNINVLLNDFCGMDAPLLRFEVGSKPLVQTISQPAQSHHNPVSVARQQPVRMAPVRPSWDNSPVQAEHTYRSNVNPKHTFDNFVEGKSNQLARAAARQVADNPGGAYNPLFLYGGTGLGKTHLLHAVGNGIIARKPNAKVVYMHSERFVQDMVKALQNNAIEEFKRYYRSVDALLIDDIQFFANKERSQEEFFHTFNALLEGNQQIILTSDRYPKEINGVEDRLKSRFGWGLTVAIEPPELETRVAILMKKADENDIRLPGEVAFFIAKRLRSNVRELEGALNRVIANANFTGRSITIDFVREALRDLLALQEKLVTIDNIQKTVAEYYKIKIADLLSKRRSRSVARPRQMAMALAKELTNHSLPEIGDAFGGRDHTTVLHACRKIEQLREESHDIKEDFSNLIRTLSSLEHHHHHH”, the “soluble on expression in E. coli” value is “soluble”.
With “MSLKFMSRFTFKQFHINQNSCAMKVGTDGILLGAWADVKHCKNILDMGCGTGLLALMLAQRTEENCQIQAVELDPIAAKQAQENINNSVWKNRIQLTQVDIQHFLQTTEQTFDLIVANPPYFEQGIACKNEERELARYTKQSHLNWLEWAATRLSENGRISFVLPYEAGKTLTKSTALFCIKQTNVITKIGKTPQRMLLTFAKQPEVLMQDQLVIYDADNQYTEAFIELTKDFYLKEGHHHHHH” the entry was “soluble”.
In the case of “QLKDKFDGRPTKPPPNSYSLYCAELMANMKDVPSTERMVLCSQQWKLLSQKEKDAYHKKCDQKKKDYEVELLRFLESLPEEEQQRVLGEEKMLNI”, the “soluble on expression in E. coli” value is listed as “soluble”.
The result for “TVNQAKIFAQTTKMLEFAKQLLETDDFSTLREAYYVSKNWGEARFDDQQASNNVIEDLEAALGVLREHLGFIPEEDGSSVVGPLKIIEETPEGELVVDCTKLGTGAYNIPNDVTKLNLETDADFILAIETSGMFARLNAERFWDKHNCILVSLKGVPARATRRFIKRLHEEHDLPVLVFTDGDPYGYLNIYRTLKVGSGKAIHLADKLSIPAARLIGVTPQDIIDYDLPTHPLKEQDIKRIKDGLKNDDFVRSFPEWQKALKQMLDMGVRAEQQSLAKYGLKYVVNTYLPEKIKDESTWLP” reads “soluble”; that for “MEFRKEVEVAKILVGGKVEENVVEIRYDPLTLQTSRILKKTIPMQSGDFQEEIDSTRSWCPFCPERIEQMVSRDPEIMEGELWKRGEAVLFSNLTPYSKYSLVLRLTEEHYVPVSEFKSQHFFDAFKLIQEYVKKVPEGKYYVTIGMNYLKPSGSSIMHPHIQVMISEVSTDYFARLDWSALEFKESNGVDYWKKLAEVEKGGERYIGSTDKTEWVAAFAPKGFFHFTGIPEEREFMQMSDEQLKGIAEGIAKILRYYGRKNLNAFNFSMFCADRIGDHFRTNINIVARTPFAKYYWCDVFYPKMFHDESVVFFVPEEYAKEIREIWSEL”, “not soluble”.
Consider “MPHSYPALSAEQKKELSDIALRIVAPGKGILAADESVGSMAKRLSQIGVENTEENRRLYRQVLFSADDRVKKCIGGVIFFHETLYQKDDNGVPFVRTIQDKGIVVGIKVDKGVVPLAGTDGETTTQGLDGLSERCAQYKKDGADFAKWRCVLKISERTPSALAILENANVLARYASICQQNGIVPIVEPEILPDGDHDLKRCQYVTEKVLAAVYKALSDHHVYLEGTLLKPNMVTPGHACPIKYTPEEIAMATVTALRRTVPPAVPGVTFLSGGQSEEEASFNLNAINRCPLPRPWALTFSYGRALQASALNAWRGQRDNAGAATEEFIKRAEVNGLAAQGKYEGSGEDGGAAAQSLYIANHAYL”, for which the “soluble on expression in E. coli” value is given as “soluble”.
In the case of “MLAPERIHPALWRATQLAHGPTRKLPTGYADLSAQLPGGGWPLGALVELLLPQPGSGEIRLLRPALAQLEARRAIALVQPPHAPHIASWASWRLDPRQLLWVAPERPADALWAAEQILKAGSCAALLCWLPQVRPESLRRLHLAAQGGDALFVALRPAAAEQHASPAVLRLALAPAPGGLSIRIVKRRGPACEHPVHVGLEAGAGLSVFPAPHAPLDRRLPAQPVAGRRTPALVSLEHHHHHH”, the “soluble on expression in E. coli” value is recorded as “not soluble”.
As for “MLKELEVNGKRFFLAPESNFWAIGEREEVERFYRERKDALLEEMQRYRFEVDIRTAYINPTESCNRNCPYCYIPAEIRERGTKMSYEKLEEILTVLAENGVERVIFHGAEPLMVKDEIFRAMEDFDFKYGIQTNATLLEEEDAELLMKKGASVGISLDSPYKETNDYLRGKGHYDAVMRALDFFDGYRSLNIIMTVNKHNFQHLPAMVDFLAGKVSVMLANPVRGTSPGGRELRPPEGFEDYYIKAIDRAIENTKSGRRIVIGDFANILLGLVAPTSRVLQCDISPCGGGRRFFAVSADGIYPCGEFIGMEEFRANLSALSDWSSLIEKFEVVRKRTVEQIEECRNCEFRNLCGAPCPAEIYAESGTMLRKSPYCEFYKKLALKAMDVIARGDVRNVLKLERMKAIYRVEDF”, the “soluble on expression in E. coli” value is reported as “not soluble”.
